Consider two substances from US5861491.

The target of assay [1] is human serum albumin immobilized on Sepharose (human) (UniProt P02768). Put plainly: 125I-hLF retained on HSA-Sepharose, +0.2% Tween-20.
Assay [2] has the same target. Description: 125I-hLF retained on HSA-Sepharose, +0.2% Tween-20 +2 M NaCl.
Assay [3] has the same target. Description: 125I-hLF retained on HSA-Sepharose, +0.2% Tween-20 +0.5 M NaCl.
Assay [4] shares this target. Description: 125I-hLF retained on HSA-Sepharose, +0.2% Tween-20 +0.25 M NaCl.
The target is the same in assay [5]. Put plainly: 125I-hLF retained on HSA-Sepharose, +0.2% Tween-20 +0.1% Polybrene.
For assay [6] the target is unchanged. Description: 125I-hLF retained on HSA-Sepharose, 10 mM sodium phosphate, 0.15M NaCl, pH 7.4, no addition.
In assay [7] the target is caseins (casein fraction of whole bovine milk). Description: co-sedimentation of bLF with the casein pellet of whole cow milk (centrifugation only, no addition), bLF read by competitive inhibition RIA.

“125I-labelled human lactoferrin (from UniProt P02788)”: the percentage binding is 9% in assay [1]; 4% in assay [2]; 3% in assay [3]; 4% in assay [4]; 4% in assay [5]; 8% in assay [6].

Turning to “bovine lactoferrin (from UniProt P24627)”, in assay [7], the % of total bLF found in casein fraction turned out to be 21%.
